Experimental findings from patent publication EP0669979B1 (GENENTECH, INC., dated 2005) are described below.

Assay [1] deals with T1, C-C chemokine receptor 1 (C-C CKR-1) (human, UniProt P32246 1-355).
T1 construct: Transiently expressed from pRK5 in human embryonic kidney 293 cells; also called JOSH1; cloned C-C CKR-1
T1 sequence: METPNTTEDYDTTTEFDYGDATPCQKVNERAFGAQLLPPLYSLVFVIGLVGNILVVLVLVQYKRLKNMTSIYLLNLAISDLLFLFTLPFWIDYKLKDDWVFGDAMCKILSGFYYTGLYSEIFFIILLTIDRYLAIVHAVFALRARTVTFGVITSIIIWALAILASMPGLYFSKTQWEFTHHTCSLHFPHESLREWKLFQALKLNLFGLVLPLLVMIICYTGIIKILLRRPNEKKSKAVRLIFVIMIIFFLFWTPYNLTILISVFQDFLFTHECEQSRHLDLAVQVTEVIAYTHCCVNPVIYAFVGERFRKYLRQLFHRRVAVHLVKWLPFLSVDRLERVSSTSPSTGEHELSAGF
The assay can be described thus: heterologous displacement of 125I-HuMIP-1α on 293 cells expressing C-C CKR-1, Scatchard analysis. Background: Loss of bound radioactivity is the signal in a displacement assay; it reports binding, not function.

The target in assay [2] is T1, C-C chemokine receptor 1 (C-C CKR-1). Briefly: 125I-HuMIP-1α displaced by unlabeled HuMIP-1α on 293 cells expressing C-C CKR-1, 4 °C, Scatchard analysis.
For assay [3] the target is unchanged. The assay can be described thus: heterologous displacement of 125I-RANTES by unlabeled HuMIP-1α on 293 cells expressing C-C CKR-1, Scatchard analysis.

B1: RANTES (Regulated on Activation, Normal T Expressed and Secreted) (ligand, UniProt P13501 24-91, looked up)
chain: SPYSSDTTPCCFAYIARPLPRAHIKEYFYTSGKCSNPAVVFVTRKNRQVCANPEKKWVREYINSLEMS
modifications: ends and bridges not checked; also: 125I-labeled where used as tracer
The term Kd denotes the concentration at which binding is half-saturated. In turn, B1 gave a Kd in assay [1] of 468 nM.

B2: human MIP-1β (HuMIP-1β) (ligand, UniProt P13236 24-92, looked up)
chain: APMGSDPPTACCFSYTARKLPRNFVVDYYETSSLCSQPAVVFQTKRSKQVCADPSESWVQEYVYDLELN
notes: also called HuMIP-1b; MIP-lb
As to B2, binding in assay [1] was put at a Kd of 232 nM.

B3: murine MIP-1α (ligand, UniProt P10855 24-92, looked up)
chain: APYGADTPTACCFSYSRKIPRQFIVDYFETSSLCSQPGVIFLTKRNRQICADSKETWVQEYITDLELNA
For B3, the Kd in assay [1] was determined as 4.2 nM.

B4: human MIP-1α (HuMIP-1α) (ligand, UniProt P10147 24-92, looked up)
chain: SLAADTPTACCFSYTSRQIPQNFIADYFETSSQCSKPGVIFLTKRSRQVCADPSEEWVQKYVSDLELSA
modifications: ends and bridges not checked; also: 125I-iodinated (chloroglycoluril) where used as tracer
notes: also called HuMIP-1a
Consider B4, for which the Kd in assay [2] was 5.1 nM; in assay [3], 7.6 nM.
